From IntAct's records for PubMed 29892012

B1: E3 ubiquitin-protein ligase LNX (Homo sapiens), Q8TBB1 (parent)
chain: MNQPESANDPEPLCAVCGQAHSLEENHFYSYPEEVDDDLICHICLQALLDPLDTPCGHTYCTLCLTNFLVEKDFCPMDRKPLVLQHCKKSSILVNKLLNKLLVTCPFREHCTQVLQRCDLEHHFQTSCKGASHYGLTKDRKRRSQDGCPDGCASLTATAPSPEVSAAATISLMTDEPGLDNPAYVSSAEDGQPAISPVDSGRSNRTRARPFERSTIRSRSFKKINRALSVLRRTKSGSAVANHADQGRENSENTTAPEVFPRLYHLIPDGEITSIKINRVDPSESLSIRLVGGSETPLVHIIIQHIYRDGVIARDGRLLPGDIILKVNGMDISNVPHNYAVRLLRQPCQVLWLTVMREQKFRSRNNGQAPDAYRPRDDSFHVILNKSSPEEQLGIKLVRKVDEPGVFIFNVLDGGVAYRHGQLEENDRVLAINGHDLRYGSPESAAHLIQASERRVHLVVSRQVRQRSPDIFQEAGWNSNGSWSPGPGERSNTPKPLHPTITCHEKVVNIQKDPGESLGMTVAGGASHREWDLPIYVISVEPGGVISRDGRIKTGDILLNVDGVELTEVSRSEAVALLKRTSSSIVLKALEVKEYEPQEDCSSPAALDSNHNMAPPSDWSPSWVMWLELPRCLYNCKDIVLRRNTAGSLGFCIVGGYEEYNGNKPFFIKSIVEGTPAYNDGRIRCGDILLAVNGRSTSGMIHACLARLLKELKGRITLTIVSWPGTFL
partner: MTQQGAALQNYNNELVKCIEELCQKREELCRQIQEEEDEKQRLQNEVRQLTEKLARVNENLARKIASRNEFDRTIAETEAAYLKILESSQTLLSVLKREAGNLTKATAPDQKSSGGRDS
B2: Glucosamine-6-phosphate deaminase 2 (Homo sapiens), Q8TDQ7 (parent)
chain: MRLVILDNYDLASEWAAKYICNRIIQFKPGQDRYFTLGLPTGSTPLGCYKKLIEYHKNGHLSFKYVKTFNMDEYVGLPRNHPESYHSYMWNNFFKHIDIDPNNAHILDGNAADLQAECDAFENKIKEAGGIDLFVGGIGPDGHIAFNEPGSSLVSRTRLKTLAMDTILANAKYFDGDLSKVPTMALTVGVGTVMDAREVMILITGAHKAFALYKAIEEGVNHMWTVSAFQQHPRTIFVCDEDATLELRVKTVKYFKGLMHVHNKLVDPLFSMKDGN
partner: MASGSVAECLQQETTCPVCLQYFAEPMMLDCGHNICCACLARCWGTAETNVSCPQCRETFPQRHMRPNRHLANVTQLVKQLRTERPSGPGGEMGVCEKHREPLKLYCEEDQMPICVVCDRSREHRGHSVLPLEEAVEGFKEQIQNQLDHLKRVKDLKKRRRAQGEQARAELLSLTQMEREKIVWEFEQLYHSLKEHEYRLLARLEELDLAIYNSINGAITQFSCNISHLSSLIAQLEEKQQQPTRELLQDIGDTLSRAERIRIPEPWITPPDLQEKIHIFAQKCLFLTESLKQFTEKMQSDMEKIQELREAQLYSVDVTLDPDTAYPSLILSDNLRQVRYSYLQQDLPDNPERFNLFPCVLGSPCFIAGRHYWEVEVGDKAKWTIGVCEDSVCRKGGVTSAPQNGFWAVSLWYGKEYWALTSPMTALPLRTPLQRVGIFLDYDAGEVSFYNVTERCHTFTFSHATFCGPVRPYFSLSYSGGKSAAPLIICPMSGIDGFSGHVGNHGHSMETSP
B3: Ribosome production factor 1 (Homo sapiens), Q9H9Y2 (parent)
chain: MAKAGDKSSSSGKKSLKRKAAAEELQEAAGAGDGATENGVQPPKAAAFPPGFSISEIKNKQRRHLMFTRWKQQQRKEKLAAKKKLKKEREALGDKAPPKPVPKTIDNQRVYDETTVDPNDEEVAYDEATDEFASYFNKQTSPKILITTSDRPHGRTVRLCEQLSTVIPNSHVYYRRGLALKKIIPQCIARDFTDLIVINEDRKTPNGLILSHLPNGPTAHFKMSSVRLRKEIKRRGKDPTEHIPEIILNNFTTRLGHSIGRMFASLFPHNPQFIGRQVATFHNQRDYIFFRFHRYIFRSEKKVGIQELGPRFTLKLRSLQKGTFDSKYGEYEWVHKPREMDTSRRKFHL
partner: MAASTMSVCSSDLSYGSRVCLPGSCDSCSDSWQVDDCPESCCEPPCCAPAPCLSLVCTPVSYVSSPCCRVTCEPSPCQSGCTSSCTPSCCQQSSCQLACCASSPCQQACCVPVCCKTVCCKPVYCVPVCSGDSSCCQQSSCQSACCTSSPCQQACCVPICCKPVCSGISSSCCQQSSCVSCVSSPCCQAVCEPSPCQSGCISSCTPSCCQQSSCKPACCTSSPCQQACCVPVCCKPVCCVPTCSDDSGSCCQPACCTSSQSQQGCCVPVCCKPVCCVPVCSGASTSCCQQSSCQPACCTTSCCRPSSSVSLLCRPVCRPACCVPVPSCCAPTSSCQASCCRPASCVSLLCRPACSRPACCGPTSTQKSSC
B4: Late cornified envelope protein 1B (Homo sapiens), Q5T7P3 (parent)
chain: MSCQQNQQQCQPPPKCIPKCPPKCLTPRCPPKCPPKCPPVSSCCSVSSGGCCGSSSGGSCGSSSGGCCSSGGGGCCLSHHRRRRSHCHRPQSSGCCSQPSGGSSCCGGGSGQHSGGCC
partner: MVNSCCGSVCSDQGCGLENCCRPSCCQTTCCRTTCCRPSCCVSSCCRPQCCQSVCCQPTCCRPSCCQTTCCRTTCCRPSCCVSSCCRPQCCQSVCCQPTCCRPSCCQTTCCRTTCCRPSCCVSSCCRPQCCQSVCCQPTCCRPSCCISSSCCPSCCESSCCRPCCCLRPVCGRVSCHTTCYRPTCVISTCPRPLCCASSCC
B5: Abl interactor 2 (Homo sapiens), Q9NYB9 (parent)
chain: MAELQMLLEEEIPGGRRALFDSYTNLERVADYCENNYIQSADKQRALEETKAYTTQSLASVAYLINTLANNVLQMLDIQASQLRRMESSINHISQTVDIHKEKVARREIGILTTNKNTSRTHKIIAPANLERPVRYIRKPIDYTILDDIGHGVKWLLRFKVSTQNMKMGGLPRTTPPTQKPPSPPMSGKGTLGRHSPYRTLEPVRPPVVPNDYVPSPTRNMAPSQQSPVRTASVNQRNRTYSSSGSSGGSHPSSRSSSRENSGSGSVGVPIAVPTPSPPSVFPAPAGSAGTPPLPATSASAPAPLVPATVPSSTAPNAAAGGAPNLADGFTSPTPPVVSSTPPTGHPVQFYSMNRPASRHTPPTIGGSLPYRRPPSITSQTSLQNQMNGGPFYSQNPVSDTPPPPPPVEEPVFDESPPPPPPPEDYEEEEAAVVEYSDPYAEEDPPWAPRSYLEKVVAIYDYTKDKEDELSFQEGAIIYVIKKNDDGWYEGVMNGVTGLFPGNYVESIMHYSE
partner: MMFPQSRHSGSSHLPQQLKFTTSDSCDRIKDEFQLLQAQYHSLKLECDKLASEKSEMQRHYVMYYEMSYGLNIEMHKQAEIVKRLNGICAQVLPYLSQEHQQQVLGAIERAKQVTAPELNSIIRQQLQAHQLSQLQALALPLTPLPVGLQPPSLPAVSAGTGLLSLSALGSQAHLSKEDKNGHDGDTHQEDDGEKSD
B6: E3 ubiquitin-protein ligase LNX (Homo sapiens), Q8TBB1 (parent)
chain: B1 chain
partner: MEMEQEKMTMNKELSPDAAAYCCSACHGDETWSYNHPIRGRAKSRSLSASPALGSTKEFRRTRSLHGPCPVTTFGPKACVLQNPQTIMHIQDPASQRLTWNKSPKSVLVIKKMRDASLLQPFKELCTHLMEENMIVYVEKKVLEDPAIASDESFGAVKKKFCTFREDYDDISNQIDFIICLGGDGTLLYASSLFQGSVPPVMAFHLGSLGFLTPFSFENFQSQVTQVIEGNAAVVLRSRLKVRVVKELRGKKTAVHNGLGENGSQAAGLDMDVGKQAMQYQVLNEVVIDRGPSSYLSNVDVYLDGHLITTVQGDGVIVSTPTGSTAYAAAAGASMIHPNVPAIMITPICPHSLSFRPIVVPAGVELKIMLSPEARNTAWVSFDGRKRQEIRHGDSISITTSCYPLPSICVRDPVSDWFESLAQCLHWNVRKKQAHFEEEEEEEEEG
B7: Abl interactor 2 (Homo sapiens), Q9NYB9 (parent)
chain: B5 chain
partner: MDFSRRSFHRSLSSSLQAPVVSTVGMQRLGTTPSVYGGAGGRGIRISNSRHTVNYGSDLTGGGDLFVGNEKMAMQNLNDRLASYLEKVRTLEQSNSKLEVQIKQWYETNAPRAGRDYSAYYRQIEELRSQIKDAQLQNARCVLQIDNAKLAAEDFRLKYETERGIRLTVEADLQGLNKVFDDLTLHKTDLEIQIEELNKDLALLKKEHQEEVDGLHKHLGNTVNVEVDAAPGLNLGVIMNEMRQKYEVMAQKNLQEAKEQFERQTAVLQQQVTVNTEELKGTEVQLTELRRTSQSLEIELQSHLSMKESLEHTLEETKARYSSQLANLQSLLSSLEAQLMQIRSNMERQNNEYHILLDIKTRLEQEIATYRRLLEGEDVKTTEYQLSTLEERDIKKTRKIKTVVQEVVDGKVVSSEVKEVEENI
B8: U3 small nucleolar RNA-associated protein 25 homolog (Homo sapiens), Q68CQ4 (parent)
chain: MGKRGSRSQSQLLNTLTKKQKKHLRDFGEEHPFYDRVSRKEAKPQICQLSESSDSSDSESDSESEPQQVSGYHRLLATLKNVSEEEEEDEEEEEEEDSIVDDAEMNDEDGGSDVSVEEEMAAESTESPENVALSADPEGKEDGEEPPGTSQTSPEEFTDAKHESLFSLETNFLEEESGDNSSLKASQDPFLQHVNKELKEKAIQAVATNPKTTHELKWPILGQLFFSSKFQKLETFKPPKDIDLKSLHLQKPLESTWTKTNSQFLSGPQKSSSPFTPLQKELFLIMNSYRDLFYPERTALKNGEEIRHVYCLHVINHILKANAQVLGNNSRRRSQKFGVGDDDDFRDQGLTRPKVLIVVPFREAALRVVQLFISLLEGDSKKKIIVSNKKRFQGEYGSDPEERPPNLKRPEDYEAVFVGNIDDHFRIGVAILQRSIRLYAPFYSSDILIASPLGLRTIIGGEGEKKRDFDFLSSIELLIIDQADIYLMQNWEHVLHLMNHMNLLPLDSHGVDFSRVRMWSLNNWSKYYRQTLLFGALQDAQINSVFNKYCVNMQGQVAVRNVPMTGSISHVLVQLPHVFQRMEAENLASVIDARFNFFVNKILPQYRDAVMSHTLIYIPSYFDFVRLRNYFKKEELNFTHICEYTQKSGVSRARHFFLQGEKQFLLFTERFHFYKRYTIKGIRNLIFYELPTYPHFYSEICNMLRATNRGEEATWTCTVLYSKYDAQRLAAVVGVERAAQMLQSNKNVHLFITGEK
B9: E3 ubiquitin-protein ligase LNX (Homo sapiens), Q8TBB1 (parent)
chain: B1 chain
partner: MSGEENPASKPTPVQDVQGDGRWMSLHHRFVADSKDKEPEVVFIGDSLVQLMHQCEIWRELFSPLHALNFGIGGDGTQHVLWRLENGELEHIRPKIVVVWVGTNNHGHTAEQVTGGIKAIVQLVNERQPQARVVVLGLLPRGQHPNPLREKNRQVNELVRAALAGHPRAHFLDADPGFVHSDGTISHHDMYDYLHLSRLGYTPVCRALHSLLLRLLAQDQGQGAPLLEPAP

Variants of: B1
Conditions: with ssna1_human SSNA1, O43805

E295K was tested. Which “effect of a mutation on the interaction” value did it give?
Its value is “disrupting interaction strength”.

Variants of: B2
Conditions: with tri27_human TRIM27, P14373

With I216V as the variant, how does the “effect of a mutation on the interaction” value read?
Its value is “with no effect”.

Variants of: B3
Conditions: with kr107_human KRTAP10-7, P60409

For P49T, which “effect of a mutation on the interaction” value is on record?
The value was “with no effect”.

Variants of: B4
Conditions: with kr412_human KRTAP4-12, Q9BQ66

How did the “effect of a mutation on the interaction” value turn out when C16Y was run?
Its value is “disrupting interaction strength”.

Variants of: B5
Conditions: with tle5_human TLE5, Q08117

For E202K, which “effect of a mutation on the interaction” value is on record?
The value was “with no effect”.

Variants of: B5
Conditions: with tle5_human TLE5, Q08117
Remark: another data set of the same source

With R373C as the variant, how does the “effect of a mutation on the interaction” value read?
Its value is “with no effect”.

Variants of: B6
Conditions: with nadk_human NADK

E295K was tested. Which “effect of a mutation on the interaction” value did it give?
Its value is “disrupting interaction strength”.

Variants of: B7
Conditions: with KRT20, P35900

How did the “effect of a mutation on the interaction” value turn out when R373C was run?
Its value is “with no effect”.

Variants of: B7
Conditions: with KRT20, P35900
Remark: another data set of the same source

How did the “effect of a mutation on the interaction” value turn out when E202K was run?
Its value is “with no effect”.

Variants of: B8
Conditions: with rufy1_human RUFY1, Q96T51
Chain of rufy1_human RUFY1, Q96T51 (Q96T51 whole entry): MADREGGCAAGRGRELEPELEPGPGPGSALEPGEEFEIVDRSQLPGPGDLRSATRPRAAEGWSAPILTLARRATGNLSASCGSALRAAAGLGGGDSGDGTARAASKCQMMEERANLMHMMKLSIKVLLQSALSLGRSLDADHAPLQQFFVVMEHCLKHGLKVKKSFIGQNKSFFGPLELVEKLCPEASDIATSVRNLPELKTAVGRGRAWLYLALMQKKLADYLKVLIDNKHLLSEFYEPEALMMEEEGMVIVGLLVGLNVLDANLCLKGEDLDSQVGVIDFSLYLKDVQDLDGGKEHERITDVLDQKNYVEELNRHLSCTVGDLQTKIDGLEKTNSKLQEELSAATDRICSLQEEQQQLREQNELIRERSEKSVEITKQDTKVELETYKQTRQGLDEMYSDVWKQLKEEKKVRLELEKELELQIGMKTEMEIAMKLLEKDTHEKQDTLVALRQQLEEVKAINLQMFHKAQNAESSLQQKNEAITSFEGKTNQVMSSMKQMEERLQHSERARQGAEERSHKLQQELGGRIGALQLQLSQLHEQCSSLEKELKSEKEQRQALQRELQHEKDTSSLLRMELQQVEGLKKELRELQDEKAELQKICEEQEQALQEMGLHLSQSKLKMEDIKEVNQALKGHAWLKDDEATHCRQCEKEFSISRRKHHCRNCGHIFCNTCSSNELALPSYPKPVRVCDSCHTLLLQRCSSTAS

With D399E as the variant, how does the “effect of a mutation on the interaction” value read?
The value was “with no effect”.

Variants of: B9
Conditions: with pa1b3_human PAFAH1B3, Q15102

How did the “effect of a mutation on the interaction” value turn out when E295K was run?
Its value is “disrupting interaction strength”.
